Results reported in publication PMC9149119.
Read-outs that look alike come from different tables or passages of the source.

T1: MsCAPP PP domain (MsPP111-328) (Marinitoga sp. 1137, UniProt PDB:7QAZ_1 1-219)
T1 sequence: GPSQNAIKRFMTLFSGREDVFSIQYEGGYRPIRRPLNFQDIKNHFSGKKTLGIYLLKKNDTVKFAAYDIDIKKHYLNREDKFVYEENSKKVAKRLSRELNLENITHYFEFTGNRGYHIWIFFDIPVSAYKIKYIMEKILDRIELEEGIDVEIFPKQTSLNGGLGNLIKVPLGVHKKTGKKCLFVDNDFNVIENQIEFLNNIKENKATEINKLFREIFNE


What was measured:
[1] = biological target: T1, MsCAPP PP domain (MsPP111-328); assay: X-ray crystallography
[2] = biological target: T1, MsCAPP PP domain (MsPP111-328); assay: X-ray crystallography; remark: listed apart in the source

Binder	binding result [1]	binding result [2]
AAAAATCAA (ssDNA) [primer initiation template 9-mer]	binds	–
dsDNA 6-mer (dsDNA) DNA 1: CGTGCG DNA 2: CGTGCG	–	binds
